Experimental data taken from patent US20030171557.

What was measured:
[1] = system: GST-IkBα protein [GST: P08515]
Sequence of GST-IkBα protein [GST: P08515] (P08515 whole entry, looked up): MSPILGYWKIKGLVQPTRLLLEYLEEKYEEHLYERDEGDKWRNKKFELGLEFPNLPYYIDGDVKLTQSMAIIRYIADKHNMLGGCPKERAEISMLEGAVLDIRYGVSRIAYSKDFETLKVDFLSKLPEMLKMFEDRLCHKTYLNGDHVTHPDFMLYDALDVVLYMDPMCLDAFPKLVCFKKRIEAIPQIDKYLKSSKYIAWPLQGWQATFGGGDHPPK

## GST fusion protein with mutant VRK1 protein (Lys 71 replaced by Trp)
[1]
  kinase assay, phosphorylation of substrate ([γ-32P]-ATP, SDS-PAGE, 10 mM Mg): no phosphorylation was observed in reactions with mutant VRK1 carrying mutation in the predicted ATP binding site
Casein (Sigma)
  kinase assay, phosphorylation of substrate ([γ-32P]-ATP, SDS-PAGE, 10 mM Mg): no phosphorylation was observed in reactions with mutant VRK1 carrying mutation in the predicted ATP binding site
